# According to patent US20230330253A1 (LANOVA MEDICINES, published 2023):
# Legend:
# Assay in all cases: cell-based or functional assay
# [1] = target: human claudin 18.2 (CLDN18.2) (human)
# [2] = target: human claudin 18.2 (CLDN18.2) (human); remark: listed apart in the source
# [3] = target: human claudin 18.2 (CLDN18.2) (human); remark: listed apart in the source
"Fluorescence, pHAb internalization on MKN45-CLDN18.2 cells, 20 nM antibody, normalized by DAR [1]","Fluorescence, pHAb internalization on MKN45-CLDN18.2 cells, 100 nM antibody, normalized by DAR [1]","EC50, ADCC Reporter Bioassay (luciferase) [2] [pM]","EC50, ADCC Reporter Bioassay (luciferase, Jurkat FcγRIIIa V158/NFAT effector cells) [3] [pM]",Binder
7950,18900,158,458,"175D10 (IMAB362; claudiximab) (antibody, V domains shown) VH: QVQLQQPGAELVRPGASVKLSCKASGYTFTSYWINWVKQRPGQGLEWIGNIYPSDSYTNYNQKFKDKATLTVDKSSSTAYMQLSSPTSEDSAVYYCTRSWRGNSFDYWGQGTTLTVSS VL: DIVMTQSPSSLTVTAGEKVTMSCKSSQSLLNSGNQKNYLTWYQQKPGQPPKLLIYWASTRESGVPDRFTGSGSGTDFTLTISSVQAEDLAVYYCQNDYSYPFTFGSGTKLEIK"
,,,5.81,"120B7B2 chimeric antibody (antibody, V domains shown) VH: EVQLQQSGPELVKPGASVKMSCKASGYTFTGYIIQWMKQKPGLGLEWIGFINPYNDGTKYNEQFKGKATLTSDKSSNAAYMELSSLTSEDSAVYYCARAYFGNSFAYWGQGTLVTVSA VL: DIVMTQSPSSLTVTAGEKVTMSCKSSQSLLNSGNQKNYLTWYQQRPGQPPKLLMYWASTRESGVPDRFTGSGSGTDFTLTISSGQAEDLAIYFCQNGYYFPFTFGSGTKLETK"
23000,41300,,79.5,"103F6D3 chimeric antibody (antibody, V domains shown) VH: QVQLQQSGAELARPGASVKMSCKASGYTFPTYSIHWLKQGPGQGLEWIGYINPNTIYTNYNQKFKYKTTLTADKSSSTAYIQLSSLTSDDSAVYYCAREGYGRGNAMDYWGQGTSVTVSS VL: DIVMTQSPSSQTVTAGEKVTLSCRSSQSLLNGGNQKNYLTWYQQKPGQPPKLLIYWASTRESGVPDRFTGSGSGTYFTFTISSVQAEDLAVYYCQNAYFYPFTFGAGTKLELK"
26800,41100,,15.9,"78E8G9G6 chimeric antibody (antibody, V domains shown) VH: QVQLKESGPGLVAPSQSLSITCTVSGFSLISYGVHWVRQPPGKGLEWLGVIWAGGRTNYNSALMSRLSISKDNSKSQVFLKMNSLQTYDTAMYYCARDRYGGNSLDYWGQGTSVTVSS VL: DIVMTQSPSSLTVTAGEKVTMNCRSIQSLLNSGNQKNYLSWYQQKPGQPPKLLIYWASTRESGVPDRFTGSGSGTDFTLTIRSVLDEDLAVYYCQNSYSYPFTFGSGTKLEMK"
19200,31300,114,,"120B7B2 HC G57D&S104A-LC S32A&G97A (BG2001-E) (humanized, PTM de-risked, No. 7) (antibody, V domains shown) VH: QVQLVQSGAEVKKPGASVKVSCKASGYTFTGYIIQWVRQAPGQRLEWMGFINPYNDDTKYNEQFKGRVTITRDTSASTAYMELSSLRSEDTAVYYCARAYFGNAFAYWGQGTLVTVSS VL: DIVMTQSPDSLAVSLGERATINCKSSQSLLNAGNQKNYLTWYQQKPGQPPKLLIYWASTRESGVPDRFSGSGSGTDFTLTISSLQAEDVAVYYCQNAYYFPFTFGGGTKLEIK"
,,493,,"120B7B2 HC G57D&S104A-LC-N96E&N31E (humanized, PTM de-risked, No. 6) (antibody, V domains shown) VH: QVQLVQSGAEVKKPGASVKVSCKASGYTFTGYIIQWVRQAPGQRLEWMGFINPYNDDTKYNEQFKGRVTITRDTSASTAYMELSSLRSEDTAVYYCARAYFGNAFAYWGQGTLVTVSS VL: DIVMTQSPDSLAVSLGERATINCKSSQSLLESGNQKNYLTWYQQKPGQPPKLLIYWASTRESGVPDRFSGSGSGTDFTLTISSLQAEDVAVYYCQEGYYFPFTFGGGTKLEIK"

# Second part, the binder before the results:
Binder,"Fluorescence, pHAb internalization on MKN45-CLDN18.2 cells, 20 nM antibody, normalized by DAR [1]","Fluorescence, pHAb internalization on MKN45-CLDN18.2 cells, 100 nM antibody, normalized by DAR [1]","EC50, ADCC Reporter Bioassay (luciferase) [2] [pM]","EC50, ADCC Reporter Bioassay (luciferase, Jurkat FcγRIIIa V158/NFAT effector cells) [3] [pM]"
"64G11B4 chimeric antibody (antibody, V domains shown) VH: QVQLHQSGTELVRPGTSVKVSCKASGYAFTNYLLEWVKQRPGQGLEWIGEINPGNGGSNYNEKFKGKATLTADKSSSTAYMQLSSLTSVDSAVYFCARIYYGNSFAYWGQGTLVTVSA VL: DIVMTQSPSSLTVTAGEKVTMNCKSSQSLLNSGNQRNYLTWYQQKPGQPPKLLIYWASTRESGVPDRFTGSGSGTDFTLTISSVQADDLAVYYCQNDYFYPFTFGAGTNLELK",24000,33700,,126
"4F11E2 HC N55Q-LC S32A (humanized, PTM de-risked, No. 2) (antibody, V domains shown) VH: EVQLVESGGGLVQPGGSLRLSCAASGFTFSTFGMHWVRQAPGKGLEWVSYITSGQSPIYFTDTVKGRFTISRDNAKNSLYLQMNSLRAEDTAVYYCARSSYYGNSMDYWGQGTLVTVSS VL: DIVMTQSPDSLAVSLGERATINCRSSQSLLNAGNRKNYLTWYQQKPGQPPKLLIYWASTRESGVPDRFSGSGSGTDFTLTISSLQAEDVAVYYCQNAYSYPFTFGGGTKLEIK",,,414,
"72C1B6A3 HC WT-LC S32A (BG2001-D) (humanized, PTM de-risked, No. 5) (antibody, V domains shown) VH: QVQLVQSGAEVKKPGASVKVSCKASGYTFTTYPIEWVRQAPGQRLEWMGNFHPYNDDTKYNEKFKGRVTITRDTSASTAYMELSSLRSEDTAVYYCARRAYGYPYAMDYWGQGTLVTVSS VL: DIVMTQSPDSLAVSLGERATINCKSSQSLLNAGNQKNYLTWYQQKPGQPPKLLIYRASSRESGVPDRFSGSGSGTDFTLTISSLQAEDVAVYYCQNDYIYPYTFGGGTKLEIK",26200,36500,190,
"4F11E2 HC N55Q-LC N31E (humanized, PTM de-risked, No. 1) (antibody, V domains shown) VH: EVQLVESGGGLVQPGGSLRLSCAASGFTFSTFGMHWVRQAPGKGLEWVSYITSGQSPIYFTDTVKGRFTISRDNAKNSLYLQMNSLRAEDTAVYYCARSSYYGNSMDYWGQGTLVTVSS VL: DIVMTQSPDSLAVSLGERATINCRSSQSLLESGNRKNYLTWYQQKPGQPPKLLIYWASTRESGVPDRFSGSGSGTDFTLTISSLQAEDVAVYYCQNAYSYPFTFGGGTKLEIK",,,238,
"72C1B6A3 HC WT-LC N31E (humanized, PTM de-risked, No. 4) (antibody, V domains shown) VH: QVQLVQSGAEVKKPGASVKVSCKASGYTFTTYPIEWVRQAPGQRLEWMGNFHPYNDDTKYNEKFKGRVTITRDTSASTAYMELSSLRSEDTAVYYCARRAYGYPYAMDYWGQGTLVTVSS VL: DIVMTQSPDSLAVSLGERATINCKSSQSLLESGNQKNYLTWYQQKPGQPPKLLIYRASSRESGVPDRFSGSGSGTDFTLTISSLQAEDVAVYYCQNDYIYPYTFGGGTKLEIK",,,1650,
"4F11E2 HC N55E-LC S32A (BG2001-C) (humanized, PTM de-risked, No. 3) (antibody, V domains shown) VH: EVQLVESGGGLVQPGGSLRLSCAASGFTFSTFGMHWVRQAPGKGLEWVSYITSGESPIYFTDTVKGRFTISRDNAKNSLYLQMNSLRAEDTAVYYCARSSYYGNSMDYWGQGTLVTVSS VL: DIVMTQSPDSLAVSLGERATINCRSSQSLLNAGNRKNYLTWYQQKPGQPPKLLIYWASTRESGVPDRFSGSGSGTDFTLTISSLQAEDVAVYYCQNAYSYPFTFGGGTKLEIK",19000,28200,148,
"12F1F4 chimeric antibody (antibody, V domains shown) VH: QVQLKESGPGLVAPSQSLSITCTVSGFSLINYGVSWVRQPPGKGLEWLGVIWGDGNTNYQSALRSRLSIRKDTSKSQVFLKLNSVHTDGTATYYCAKVGRGNAMDHWGQGISVIVSS VL: DIVMTQSPSSLTVTARERVSMTCKSSQSLFNSGNQRNYLTWYQQKPGQPPKLLIYWSSTRESGVPDRFTGSGSGTDFTLTISSVQAEDLAIYFCQNNYYYPFTFGSGTKLEIK",29500,43900,,36.8
